Assays:
[1] = HerDox stability in serum-containing media at 37° C (Ni beads); assay type: in vitro ADME; conditions: 10% fetal bovine serum media
Description: FIGS. 6 (A)-(B) illustrates conjugate stability under different storage conditions, or in serum. As illustrated in FIG. 6 (A), HerDox was incubated up to 12 days at 4° C., RT, or 37° C. Samples were filtered through ultrafiltration spin columns every other day, and retentate and filtrate absorbances measured at 480 nm to determine relative Dox retention or release from conjugates, respectively. As illustrated in FIG. 6 (B), to mimic extended exposure to cells in culture medium, HerDox immobilized on Ni-NTA beads were incubated with bovine serum in DMEM for the indicated times at 37° C. before each sample was pelleted. Absorbance of supernatants (Filtrates) and bead eluates (Retentates) were measured at 480 nm to detect Dox. Relative Dox release or retention in serum is expressed as normalized to control (corresponding sample lacking serum). N=3 per time point.
The inventors tested the stability of HerDox over 12 days under different storage temperatures: 4° C., room temperature, or 37° C. On each day, a sample underwent ultrafiltration, then filtrates and retentates were measured to determine whether any Dox was released from the complex. […] The inventors also examined HerDox stability in serum-containing media at 37° C. […] Dox retention in the conjugate was also assessed by eluting the conjugate from the beads at each time point.

HER2+ tumors = test: HerDox vs Dox biodistribution by Dox fluorescence imaging; assay type: in vivo, mice
Description: FIGS. 11 (A)-(B) illustrates preferential targeting of HerDox to HER2+ tumors. Tumor-bearing mice were injected with 0.75 nmoles of HerDox or Dox via the tail vein and imaged with a custom small animal imager. FIG. 11 (A) depicts imaging of live mice after IV delivery of HerDox. Tumors are indicated by arrows. FIG. 11 (B) depicts imaging of tumors and tissues harvested at 3 h after injection of HerDox or Dox. Fluorescence signal from Dox is pseudo-colored according to the color bar, with a shift toward 100 indicating high fluorescence intensity. FIG. 11 (B) illustrates a comparison of the targeted delivery of Dox to HER2+ breast cancer cells with minimal delivery to other organs and tissues using a delivery system in accordance with an embodiment of the present invention (left panel), as compared with Dox administered alone (right panel).
Dox emits a red fluorescence upon appropriate wavelength excitation, which can be used to detect biodistribution after systemic delivery of HerDox. Mice bearing 4-week old) tumors (˜700-800 mm^3) received a single tail vein injection of Dox or HerDox ([…] with respect to Dox cone) and images of live mice captured in real time, or of organs/tissues harvested at ˜3 h postinjection were acquired using a customized macro-illumination and detection system. Fluorescence was evident throughout the body at 10 min after HerDox injection, then quickly accumulated at the tumors by 20 min and remained detectable in the tumors up to 100 min after injection (FIG. 11 (A)).

hearts of mice = test: Cardiac tissue histology and echocardiography; assay type: in vivo; conditions: treated mice
Excerpt: FIGS. 12 (A)-(D) illustrates comparison of HerDox and Dox on (A) tumor growth, (B) animal weight, (C) cardiac tissue, and (D) cardiac function.
At 25 days following injections, tumors and organs were harvested and processed for histochemistry. It is established that Dox can induce acute and long-term cardiotoxicity, therefore, the inventors examined the hearts of mice treated with HerDox or Dox.

[2] = Stability in mouse whole blood; assay type: in vitro ADME; conditions: 0.12 mg/mL Dox conc, 37° C. up to 1 h, 0.5 mM EDTA
Description: FIG. 13 illustrates stability in mouse whole blood. Freshly collected whole blood was processed by ultrafiltration through 10K MW cutoff membranes after up to 1 h incubation with HerDox or Dox at 37° C. As 0.5 mM EDTA was used as an anticoagulant, HerDox in EDTA alone (-blood) was processed in parallel. Bars represent fluorescence of retained (retentates) or released (filtrates) Dox as a percentage of the total fluorescence of each sample. Scale of Y-axis is adjusted to show presence of filtrate samples. N=3 per treatment.
To assess the feasibility of measuring in vivo stability, the inventors incubated HerDox (at 0.12 mg/mL final Dox conc) or free Dox at equivalent concentration in freshly collected whole blood from mice and incubated the mixtures at 37° C. up to 1 h. As the anticoagulant, 0.5 mM EDTA, was present in the blood collection, parallel samples were incubated at 37° C. in EDTA alone. Samples representing input HerDox (before incubation in blood) were incubated at 37° C. in HEPES-buffered saline. All samples were then centrifuged through 10K MW cutoff filters and Dox fluorescence measured in retentates and filtrates (SpectraMax M2 from Molecular Devices). […] Likewise, there is no appreciable loss of Dox from HerDox retentates from samples incubated in blood compared to those incubated in saline or EDTA alone (FIG. 13).

breast cancer cells = test: HerDox trafficking, immunofluorescence against HerPBK10 in fixed cells; assay type: cell-based
Description: FIG. 15 illustrates HerDox trafficking in breast cancer cells. Cells incubated with HerDox at 37° C. were fixed at the indicated time points and processed for immunofluorescence using an antibody against HerPBK10. Images were captured using confocal microscopy under fluorescence and brightfield. Green, HerPBK10; Red, Dox. n, nucleus Bar, ˜8 microns.
To determine whether Dox remains attached to HerPBK10 during uptake, the inventors used immuno-fluorescence against HerPBK10. […] In fixed cells, nucleolar accumulation was not detectable as in the live cells (FIG. 14 (B)).

U251 human glioma cells = test: Toxicity to glioma cells, cell counting; assay type: cell-based; conditions: 4 hours, counted after four days
Description: FIGS. 20 (A)-(B) illustrates HerDox is toxic to glioma cells. FIG. 20 (A) depicts HER immunofluorescence on U251 human glioma cells. Images were captured using laser scanning fluorescence confocal microscopy. FIG. 20 (B) depicts a graph of HerDox vs. Dox toxicity to U251 cells. Significant differences were determined by 2-tailed tests.
U251 cells growing in dishes were incubated with either HerDox or Dox (at either 0.5 uM or 1 uM) in the culture medium for 4 hours at 37° C., 5% C02, after which fresh complete medium was added to increase the final culture volume approximately four-fold, and the cells maintained at 37° C., 5% C02 for four days. Cells were trypsinized and counted on the last day.

[3] = harvested at 3 h after injection
[4] = single tail vein injection, live imaging

B1: HerDox: non-covalent complex of HerPBK10, a small double-stranded nucleic acid and intercalated Dox (conjugate)
chain: LPPRLKEMKSQESAAGSKLVLRCETSSEYSSLRFKWFKNGNELNRKNKPQNIKIQKKPGKSELRINKASLADSGEYMCKVISKLGNDSASANITIVESNEIITGMPASTEGAYVSSESPIRISVSTEGANTSSSTSTSTTGTSHLVKCAEKEKTFCVNGGECFMVKDLSNPSRYLCKCQPGFTGARCTENVPMKVQNQEKAEELYMRRAAMYEEGPPPSYESVVSAAPVAAALGSPFDAPLDPPFVPPRYLRPTGGRNSIRYSELAPLFDTTRVYLVDNKSTDVASLNYQNDHSNFLTTVIQNNDYSPGEASTQTINLDDRSHWGGDLKTILHTNMPNVNEFMFTNKFKARVMVSRLPTKDNQVELKYEWVEFTLPEGNYSETMTIDLMNNAIVEHYLKVGRQNGVLESDIGVKFDTRNFRLGFDPVTGLVMPGVYTNEAFHPDIILLPGCGVDFTHSRLSNLLGIRKRQPFQEGFRITYDDLEGGNIPALLDVDAYQASLKDDTEQGGGGAGGSNSSGSGAEENSNAAAAAMQPVEDMNDHAIRGDTFATRAEEKRAEAEAAAEAAAPAAQPEVEKPQKKPVIKPLTEDSKKRSYNLISNDSTFTQYRSWYLAYNYGDPQTGIRSWTLLCTPDVTCGSEQVYWSLPDMMQDPVTFRSTRQISNFPVVGAELLPVHSKSFYNDQAVYSQLIRQFTSLTHVFNRFPENQILARPPAPTITTVSENVPALTDHGTLPLRNSIGGVQRVTITDARRRTCPYVYKALGIVSPRVLSSRTFKKKKKKKKKK
modifications: left off: small tags and cut ends
notes: non-covalent complex of HerPBK10, a small double-stranded nucleic acid and intercalated Dox
- release of Dox from the conjugate in serum [1]: no significant release of Dox
- Dox retention by the conjugate in serum ([1]; each time point): completely retained
- Dox fluorescence in heart, spleen, lungs, and skeletal muscle (HER2+ tumors; [3]): did not exhibit any fluorescence
- Dox fluorescence in kidneys (HER2+ tumors; [3]): barely detectable
- Dox fluorescence in liver (HER2+ tumors; [3]): substantially lower levels of fluorescence
- Dox fluorescence in tumors (HER2+ tumors; [3]): intense fluorescence
- time by which fluorescence accumulated at the tumors (HER2+ tumors; [4]): ≤ 20 min
- time fluorescence remained detectable in the tumors (HER2+ tumors; [4]): up to 100 min
- echocardiogram: stroke volume, cardiac output, left ventricular internal dimension and volume (hearts of mice): no effect
- loss of Dox from the conjugate in whole blood [2]: no detectable loss of Dox
- location of Dox and HerPBK10 during uptake (breast cancer cells; 30 and 60 min): increasing levels of Dox accumulate in the nucleus while the majority of HerPBK10 remains in the cytoplasm
- integrity of HerDox during uptake (colocalization of HerPBK10 and Dox) (breast cancer cells; 15 min of uptake): still intact
- toxicity relative to the equivalent concentration of Dox (U251 human glioma cells; 0.5 uM or 1 uM): 8-10 times
- less HerDox eliciting the same toxicity as Dox (U251 human glioma cells): 10 ×
